Experimental data from patent publication US20090318349A1 (Novo Nordisk, published 2009).
Substitutions are numbered along the chain they refer to.

B1: AlaPro-mTGase from S. mobaraensis (enzyme)
chain: APDSDDRVTPPAEPLDRMPDPYRPSYGRAETVVNNYIRKWQQVYSHRDGRKQQMTEEQREWLSYGCVGVTWVNSGQYPTNRLAFASFDEDRFKNELKNGRPRSGETRAEFEGRVAKESFDEEKGFQRAREVASVMNRALENAHDESAYLDNLKKELANGNDALRNEDARSPFYSALRNTPSFKERNGGNHDPSRMKAVIYSKHFWSGQDRSSSADKRKYGDPDAFRPAPGTGLVDMSRDRNIPRSPTSPGEGFVNFDYGWFGAQTEADADKTVWTHGNHYHAPNGSLGAMHVYESKFRNWSEGYSDFDRGAYVITFIPKSWNTAPDKVKQGWP
B2: GlyPro-mTGase from S. ladakanum (enzyme)
chain: GPDSDERVTPPAEPLDRMPDPYRPSYGRAETIVNNYIRKWQQVYSHRDGRKQQMTEEQREWLSYGCVGVTWVNSGQYPTNRLAFAFFDEDKYKNELKNGRPRSGETRAEFEGRVAKDSFDEAKGFQRARDVASVMNKALENAHDEGAYLDNLKKELANGNDALRNEDARSPFYSALRNTPSFKDRNGGNHDPSKMKAVIYSKHFWSGQDRSGSSDKRKYGDPEAFRPDRGTGLVDMSRDRNIPRSPTSPGESFVNFDYGWFGAQTEADADKTVWTHGNHYHAPNGSLGAMHVYESKFRNWSDGYSDFDRGAYVVTFVPKSWNTAPDKVKQGWP
B3: GlyPro-mTGase_Y75A from S. ladakanum (enzyme)
chain: B2 chain with Y77A
B4: GlyPro-mTGase_Y75F from S. ladakanum (enzyme)
chain: B2 chain with Y77F
B5: GlyPro-mTGase_Y75N from S. ladakanum (enzyme)
chain: B2 chain with Y77N
B6: GlyPro-mTGase_Y62H_Y75N from S. ladakanum (enzyme)
chain: B2 chain with Y64H, Y77N
B7: GlyPro-mTGase_Y62H_Y75F from S. ladakanum (enzyme)
chain: B2 chain with Y64H, Y77F, K329T

Molecular target: wild type human growth hormone (human, UniProt P01241 27-217)
Sequence (P01241 27-217): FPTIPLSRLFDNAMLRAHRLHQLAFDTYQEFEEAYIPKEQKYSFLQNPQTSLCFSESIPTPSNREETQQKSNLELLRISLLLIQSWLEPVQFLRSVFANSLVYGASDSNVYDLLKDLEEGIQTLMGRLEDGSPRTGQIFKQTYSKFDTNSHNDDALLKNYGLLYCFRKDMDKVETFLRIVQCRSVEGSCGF
Assay: cell-based or functional assay

Binder | RS (relative selectivity) | Selectivity (Q141/Q40), CE
B1 | 1 | 5.7
B2 | 1.8 | 10.3
B3 | 3 | 17.3
B4 | 5.1 | 29.1
B5 | 3.4 | 19.3
B6 | 4.6 | 26.3
B7 | 6.4 | 36.2
